Results from US20200078439A1.

Molecular target: HLA-DR molecules of the vaccinated patients
Assay: cell-based or functional assay

TLGEFLKLDRERAKN [BIR-002 (Survivin 97-111: …)]
immuno-response in vaccinated patients in vivo (IFN-g ELISPOT, +/- ICS) (out of 19 patients): 16
